Measurements reported in patent US20230158141A1 (YAFEI SHANGHAI BIOLOG MEDICINE SCIENCE AND TECHNOLOGY, published 2023).
Where a chain is given by its changes, count along the chain named. Numbers in names are those of the source. Read-outs that look alike come from different tables or passages of the source.

What was measured:
PD-1 [1] = target: T1, PD-1 (UniProt Q15116 25-167, limits assumed); assay: ELISA, conjugate vs WT antibody
PD-1 [2] = target: T1, PD-1; assay: ELISA, conjugate vs WT antibody; remark: listed apart in the source
[3] = target: T2, human Fc tagged PD-1 protein (Sino Biological) (human, UniProt Q15116 25-167); assay: ELISA, EC50 fold change; S47 on the Cys
T2 construct: bought; also called Fc tagged human PD-1 protein
T2 sequence (Q15116 25-167 limits assumed): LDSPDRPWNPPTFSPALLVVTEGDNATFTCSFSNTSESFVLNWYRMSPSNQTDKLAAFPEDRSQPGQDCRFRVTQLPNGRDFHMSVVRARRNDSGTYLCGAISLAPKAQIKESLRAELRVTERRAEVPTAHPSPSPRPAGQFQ

PD-1 [4] = target: T3, PD-1 (UniProt Q15116 25-167, limits assumed); assay: ELISA, EC50 fold change; S47 on the Cys
T3 construct: also called PD-1 antigen

CD28 = CD28 (UniProt P10747 19-152, limits assumed); assay: ELISA, conjugate vs WT antibody
His tagged VEGF protein = His tagged VEGF protein (UniProt P15692-4 27-191, limits assumed); assay: ELISA, His tagged VEGF protein
Chain of His tagged VEGF protein (P15692 other isoform, or with tags, fused parts or gaps limits assumed): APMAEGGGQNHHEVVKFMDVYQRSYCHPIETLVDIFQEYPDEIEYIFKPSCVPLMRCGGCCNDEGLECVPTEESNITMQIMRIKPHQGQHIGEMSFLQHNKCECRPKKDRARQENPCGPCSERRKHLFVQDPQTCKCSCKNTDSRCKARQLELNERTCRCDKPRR

CTLA-4 [5] = target: T4, CTLA-4 (UniProt P16410 36-162, limits assumed); assay: ELISA, OD mutant/OD WT; B=70-90%
CTLA-4 [6] = target: T4, CTLA-4; assay: ELISA, OD mutant/OD WT; B=70-90%; remark: listed apart in the source
CTLA-4 [7] = target: T4, CTLA-4; assay: ELISA, OD mutant/OD WT; ↓=less than 70%
CTLA-4 [8] = target: T5, CTLA-4 (UniProt P16410 36-162, limits assumed); assay: ELISA; R4-1 on the Cys
T5 construct: also called CTLA-4 protein

[9] = target: T6, human CTLA-4 Fc fusion protein (R&D systems) (human, UniProt P16410 37-162); assay: receptor blocking ELISA against biotinylated B7-1 or B7-2; TMEAbody (S47 conjugate)
T6 construct: bought
T6 sequence (P16410 37-162 limits assumed): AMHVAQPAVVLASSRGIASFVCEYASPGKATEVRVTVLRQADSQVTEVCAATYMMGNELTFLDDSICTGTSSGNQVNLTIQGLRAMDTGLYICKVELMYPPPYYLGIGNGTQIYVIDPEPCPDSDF

CTLA-4 [10] = target: T5, CTLA-4; assay: ELISA; R4-1 on the Cys; remark: listed apart in the source
[11] = target: T6, human CTLA-4 Fc fusion protein (R&D …); assay: ELISA, fold change of EC50; S47 on the Cys
CTLA-4 [12] = target: T5, CTLA-4; assay: ELISA; S47 on the Cys

B1: anti-PD-1 antibody 1 heavy chain K63C-R4-7 (antibody, human IgG4 S228P, kappa, V domains shown)
VH: QVQLVQSGVEVKKPGASVKVSCKASGYTFTNYYMYWVRQAPGQGLEWMGGINPSNGGTNFNECFKNRVTLTTDSSTTTAYMELKSLQFDDTAVYYCARRDYRFDMGFDYWGQGTTVTVSS
VL: EIVLTQSPATLSLSPGERATLSCRASKGVSTSGYSYLHWYQQKPGQAPRLLIYLASYLESGVPARFSGSGSGTDFTLTISSLEPEDFAVYYCQHSRDLPLTFGGGTKVEIKR
modifications: R4-7 on Cys 63
- binding activity (% of WT) (PD-1 [1]): 95.2%

B2: anti-PD-1 antibody 1 light chain G28C-R4-5 (antibody, human IgG4 S228P, kappa, V domains shown)
VH: B1 VH with C63K
VL: B1 VL with G28C
modifications: R4-5 on Cys 28
- binding activity (% of WT) (PD-1 [2]): 108%

B3: anti-PD-1 antibody 1 light chain S60C-R4-1 (antibody, human IgG4 S228P, kappa, V domains shown)
VH: B1 VH with C63K
VL: B1 VL with S60C
modifications: R4-1 on Cys 60
- binding activity (% of WT) (PD-1 [2]): 89.4%

B4: anti-PD-1 antibody 1 light chain S35C-R4-1 (antibody, human IgG4 S228P, kappa, V domains shown)
VH: B1 VH with C63K
VL: B1 VL with S35C
modifications: R4-1 on Cys 35
- binding activity (% of WT) (PD-1 [2]): 88.3%

B5: anti-PD-1 antibody 1 heavy chain S54C-R4-1 (antibody, human IgG4 S228P, kappa, V domains shown)
VH: B1 VH with S54C, C63K
VL: B1 VL
modifications: R4-1 on Cys 54
- binding activity (% of WT) (PD-1 [1]): 104%

B6: anti-PD-1 antibody 1 heavy chain T58C-R4-1 (antibody, human IgG4 S228P, kappa, V domains shown)
VH: B1 VH with T58C, C63K
VL: B1 VL
modifications: R4-1 on Cys 58
- binding activity (% of WT) (PD-1 [1]): 93.9%

B7: Pem-se007 (Pembrolizumab light chain Gly28Cys) (antibody, human IgG4 S228P, kappa, V domains shown)
VH: B1 VH with C63K
VL: B1 VL with G28C
modifications: Cys at 28 carries the group named in the row
- Blocking efficiency of S47 [3]: 8 fold

B8: anti-PD-1 antibody 1 light chain T31C-R4-1 (antibody, human IgG4 S228P, kappa, V domains shown)
VH: B1 VH with C63K
VL: B1 VL with T31C
modifications: R4-1 on Cys 31
- binding activity (% of WT) (PD-1 [2]): 84.4%

B9: anti-PD-1 antibody 1 heavy chain T30C-R4-1 (antibody, human IgG4 S228P, kappa, V domains shown)
VH: B1 VH with T30C, C63K
VL: B1 VL
modifications: R4-1 on Cys 30
- binding activity (% of WT) (PD-1 [1]): 91.2%

B10: anti-PD-1 antibody 1 light chain S30C-R4-1 (antibody, human IgG4 S228P, kappa, V domains shown)
VH: B1 VH with C63K
VL: B1 VL with S30C
modifications: R4-1 on Cys 30
- binding activity (% of WT) (PD-1 [2]): 86.9%

B11: Niv-se007 (Nivolumab light chain Ser91Cys) (antibody, human IgG4 S228P, kappa, V domains shown)
VH: QVQLVESGGGVVQPGRSLRLDCKASGITFSNSGMHWVRQAPGKGLEWVAVIWYDGSKRYYADSVKGRFTISRDNSKNTLFLQMNSLRAEDTAVYYCATNDDYWGQGTLVTVSS
VL: EIVLTQSPATLSLSPGERATLSCRASQSVSSYLAWYQQKPGQAPRLLIYDASNRATGIPARFSGSGSGTDFTLTISSLEPEDFAVYYCQQCSNWPRTFGQGTKVEIKR
modifications: Cys at 91 carries the group named in the row
- Blocking efficiency of S47 (PD-1 [4]): 25 fold

B12: anti-CD28 antibody light chain G99C-R4-1 (antibody, human IgG4, kappa, V domains shown)
VH: QVQLVQSGAEVKKPGASVKVSCKASGYTFTSYYIHWVRQAPGQGLEWIGCIYPGNVNTNYNEKFKDRATLTVDTSISTAYMELSRLRSDDTAVYFCTRSHYGLDWNFDVWGQGTTVTVSS
VL: not shown
modifications: R4-1 on Cys 99
- binding activity (% of WT) (CD28): 96.6%

B13: anti-CD28 antibody light chain T93C-R4-1 (antibody, human IgG4, kappa, V domains shown)
VH: B12 VH
VL: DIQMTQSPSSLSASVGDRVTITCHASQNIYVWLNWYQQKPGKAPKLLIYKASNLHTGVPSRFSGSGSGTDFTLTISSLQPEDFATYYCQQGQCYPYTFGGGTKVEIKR
modifications: R4-1 on Cys 93
- binding activity (% of WT) (CD28): 87%

B14: Beva-se001 conjugated to S47 (antibody, human IgG1, kappa, V domains shown)
VH: EVQLVESGGGLVQPGGSLRLSCAASGYTFTNYGMNWVRQAPGKGLEWVGWINTYTGEPTYAADFCRRFTFSLDTSKSTAYLQMNSLRAEDTAVYYCAKYPHYYGSSHWYFDVWGQGTLVTVSS
VL: DIQMTQSPSSLSASVGDRVTITCSASQDISNYLNWYQQKPGKAPKVLIYFTSSLHSGVPSRFSGSGSGTDFTLTISSLQPEDFATYYCQQYSTVPWTFGQGTKVEIKR
modifications: S47 on Cys 65
notes: Bevacizumab mutant
- Blocking efficiency of S47 (His tagged VEGF protein): 9 fold

B15: anti-CTLA-4 antibody heavy chain D62C (antibody, human IgG1, kappa, V domains shown)
VH: QVQLVESGGGVVQPGRSLRLSCAASGFTFSSYTMHWVRQAPGKGLEWVTFISYDGNNKYYACSVKGRFTISRDNSKNTLYLQMNSLRAEDTAIYYCARTGWLGPFDYWGQGTLVTVSS
VL: not shown
- binding activity (OD after mutation/OD wild type) (CTLA-4 [5]): 70 to 90%

B16: anti-CTLA-4 antibody light chain T98C (antibody, human IgG1, kappa, V domains shown)
VH: B15 VH with C62D
VL: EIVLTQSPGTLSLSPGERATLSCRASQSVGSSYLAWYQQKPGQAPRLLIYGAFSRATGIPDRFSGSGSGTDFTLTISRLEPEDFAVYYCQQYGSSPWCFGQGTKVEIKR
- binding activity (OD after mutation/OD wild type) (CTLA-4 [6]): 70 to 90%

B17: anti-CTLA-4 antibody light chain A52C (antibody, human IgG1, kappa, V domains shown)
VH: B15 VH with C62D
VL: not shown
- binding activity vs wild type (CTLA-4 [7]): < 70%

B18: anti-CTLA-4 antibody light chain Y92C (antibody, human IgG1, kappa, V domains shown)
VH: B15 VH with C62D
VL: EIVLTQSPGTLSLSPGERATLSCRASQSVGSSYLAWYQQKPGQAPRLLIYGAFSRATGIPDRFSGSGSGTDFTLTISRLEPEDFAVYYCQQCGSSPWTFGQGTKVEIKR
- binding activity vs wild type (CTLA-4 [7]): < 70%

B19: Ipi-se009 (Ipilimumab light chain Ser54Cys, Kabat L53) (antibody, human IgG1, kappa, V domains shown)
VH: B15 VH with C62D
VL: not shown
modifications: Cys at 54 (Kabat L53) carries the group named in the row
- Binding activity (CTLA-4 [8]): 98%
- Blocking efficiency (RBA), fold change of IC50 [9]: 18 fold
- Binding activity (CTLA-4 [10]): 98%
- Blocking efficiency after conjugation with S47 [11]: 22 fold
- Activity after S47 (40 kD) blocking (CTLA-4 [12]): 5%

B20: anti-CTLA-4 antibody heavy chain Y107C (antibody, human IgG1, kappa, V domains shown)
VH: B15 VH with C62D, Y107C
VL: not shown
- binding activity (OD after mutation/OD wild type) (CTLA-4 [5]): 70 to 90%

B21: anti-CTLA-4 antibody light chain A35C (antibody, human IgG1, kappa, V domains shown)
VH: B15 VH with C62D
VL: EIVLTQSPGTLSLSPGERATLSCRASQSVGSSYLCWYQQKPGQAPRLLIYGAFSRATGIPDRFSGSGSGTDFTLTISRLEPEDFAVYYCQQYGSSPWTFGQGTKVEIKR
- binding activity (OD after mutation/OD wild type) (CTLA-4 [6]): 70 to 90%

B22: anti-CTLA-4 antibody light chain L34C (antibody, human IgG1, kappa, V domains shown)
VH: B15 VH with C62D
VL: not shown
- binding activity (OD after mutation/OD wild type) (CTLA-4 [6]): 70 to 90%

B23: anti-CTLA-4 antibody light chain A56C (antibody, human IgG1, kappa, V domains shown)
VH: B15 VH with C62D
VL: not shown
- binding activity (OD after mutation/OD wild type) (CTLA-4 [6]): 70 to 90%

B24: anti-CTLA-4 antibody heavy chain Y32C (antibody, human IgG1, kappa, V domains shown)
VH: B15 VH with Y32C, C62D
VL: not shown
- binding activity (OD after mutation/OD wild type) (CTLA-4 [5]): 70 to 90%

B25: anti-CTLA-4 antibody heavy chain I51C (antibody, human IgG1, kappa, V domains shown)
VH: B15 VH with I51C, C62D
VL: not shown
- binding activity (OD after mutation/OD wild type) (CTLA-4 [5]): 70 to 90%

B26: anti-CTLA-4 antibody light chain Y33C (antibody, human IgG1, kappa, V domains shown)
VH: B15 VH with C62D
VL: not shown
- binding activity vs wild type (CTLA-4 [7]): < 70%
